Measured values taken from patent US20240262900A1, “MATERIALS AND METHODS FOR DIFFERENTIATING CREB REGULATEDTRANSCRIPTION COACTIVATOR 3” (JANSSEN BIOTECH, INC., priority 2021, published 2024).

T1: CRTC3 phosphorylated at serine 370 (pSer370) (Homo sapiens, UniProt Q6UUV7)
T1 construct: All recombinant CRTC3 full-length protein versions are preceded with; FLAG (N); AVI (N); made in house; host or cells: Baculovirus expression system
T1 sequence (Q6UUV7 1-619): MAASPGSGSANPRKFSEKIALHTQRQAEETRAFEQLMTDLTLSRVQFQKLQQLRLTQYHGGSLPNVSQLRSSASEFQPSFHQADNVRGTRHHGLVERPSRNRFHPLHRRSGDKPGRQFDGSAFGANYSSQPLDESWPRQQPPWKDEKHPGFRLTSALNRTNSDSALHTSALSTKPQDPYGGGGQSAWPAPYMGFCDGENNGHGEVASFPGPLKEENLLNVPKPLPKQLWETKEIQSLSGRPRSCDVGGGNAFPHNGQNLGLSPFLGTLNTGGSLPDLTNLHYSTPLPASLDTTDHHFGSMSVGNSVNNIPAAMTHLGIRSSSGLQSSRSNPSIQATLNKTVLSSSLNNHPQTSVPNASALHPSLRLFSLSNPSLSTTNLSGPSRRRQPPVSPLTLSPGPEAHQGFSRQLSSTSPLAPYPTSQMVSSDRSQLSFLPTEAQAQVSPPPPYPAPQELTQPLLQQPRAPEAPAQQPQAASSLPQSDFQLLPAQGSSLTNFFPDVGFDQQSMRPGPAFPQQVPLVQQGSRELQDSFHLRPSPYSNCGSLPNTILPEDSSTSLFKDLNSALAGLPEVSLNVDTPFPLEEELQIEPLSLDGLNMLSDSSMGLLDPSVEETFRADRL

T2: CRTC3 phosphorylated at serine 329 (pSer329) (Homo sapiens, UniProt Q6UUV7)
T2 construct: All recombinant CRTC3 full-length protein versions are preceded with; FLAG (N); AVI (N); made in house; host or cells: Baculovirus expression system
T2 sequence (Q6UUV7 1-619): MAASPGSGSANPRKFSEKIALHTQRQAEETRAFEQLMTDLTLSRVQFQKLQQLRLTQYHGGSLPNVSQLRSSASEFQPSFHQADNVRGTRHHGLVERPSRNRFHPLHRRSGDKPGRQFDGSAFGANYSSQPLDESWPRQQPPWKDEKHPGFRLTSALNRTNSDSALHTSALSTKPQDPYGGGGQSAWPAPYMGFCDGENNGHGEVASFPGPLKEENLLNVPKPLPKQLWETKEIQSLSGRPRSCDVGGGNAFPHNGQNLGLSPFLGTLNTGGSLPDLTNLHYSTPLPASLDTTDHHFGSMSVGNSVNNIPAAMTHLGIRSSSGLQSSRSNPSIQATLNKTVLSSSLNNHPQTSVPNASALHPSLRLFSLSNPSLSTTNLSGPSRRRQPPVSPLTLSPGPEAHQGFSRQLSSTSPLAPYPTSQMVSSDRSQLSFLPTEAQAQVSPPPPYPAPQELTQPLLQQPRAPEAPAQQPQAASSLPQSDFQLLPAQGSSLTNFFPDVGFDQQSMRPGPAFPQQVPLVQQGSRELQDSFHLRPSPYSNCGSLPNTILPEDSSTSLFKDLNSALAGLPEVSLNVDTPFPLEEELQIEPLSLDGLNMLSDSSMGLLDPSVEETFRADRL


Tests used:
[1] = tested on: phosphorylated CRTC3 in THP1 lysates; assay: Immunoblotting of lysates of macrophage-differentiated, LPS-stimulated THP1 cells, untreated or incubated with dasatinib; format: binding, human; settings: recombinant mAb
From the text: (§1) Immunoblotting was done using the NuPAGE electrophoresis and western Blotting system (Invitrogen). Briefly, 0.1-0.15 microgram of WT or S329A mutant or S370A mutant recombinant protein along with WesternSure® Pre-stained Chemiluminescent Protein Ladder (Li-Cor) were loaded onto NuPAGE® Bis-Tris gels and separated by electrophoresis. Subsequently, proteins were transferred onto nitrocellulose membranes (iBlot® 2 Transfer Stacks, nitrocellulose, mini; ThermoFisher) using an iBlot 2® Gel Transfer Device (ThermoFisher). Specific bands on the nitrocellulose membranes were detected using the automatic Western blot-processing iBind™ Flex Western System (ThermoFisher) as per the manufacturer's recommendations. As primary antibodies served either undiluted hybridoma supernatant or recombinantly expressed mAbs at 0.25 microgram/ml, whereas Peroxidase AffiniPure Donkey Anti-Rabbit IgG (H+L) (Jackson ImmunoResearch) was used as secondary antibody at a 1:4000 dilution. The blots were developed using Amersham ECL Western Blotting Detection Reagent and an ImageQuant LAS4000 image scanner (both GE Healthcare Life Sciences).
Cells were then either left untreated or incubated with dasatinib at 10 micromolar for 1.5 hours before cell harvest. […] Cells were washed in cold PBS (Gibco) and lysed on ice in 50 mM Tris HCl (Alfa Aesar) at pH 7.4, 1 mM DTT, 1% (vol/vol) Triton X-100 (both ThermoFisher), 1 mM EDTA (Gibco), 1 mM EGTA (Alfa Aesar) supplemented with protease inhibitor (cOmplete™ ULTRA Tablets; Roche) and phosphatase inhibitor (Phosstop, Roche) as per the manufacturer's recommendations for 1 hour. Extracted proteins were harvested by collecting the supernatant after centrifugation of the lysate for 20 minutes. Protein concentrations were determined using the Pierce Detergent-compatible Bradford Assay kit (Pierce). Lysate proteins were separated by gel electrophoresis and detected by immunoblotting as described above. […] That the detected signals indeed corresponded to CRTC3 was verified in independent experiments, in which similarly treated THP1 lysates were developed using an antibody recognizing CRTC3 independent of its phosphorylation status (EPR3440; purified; rabbit; Abcam; data not shown).

[2] = biological target: T1, CRTC3 phosphorylated at serine 370 (pSer370); assay: Immunoblotting of in vitro phosphorylated recombinant CRTC3 wild type vs S370A mutant protein; format: binding; settings: for specific recognition of human CRTC3 by phosphorylation state (conclusion of the experiments): serine 370
From the text: (§2) To facilitate the identification of hybridomas that produced antibodies specific for the phosphorylated immunizing peptides, CRTC3 proteins were designed that harbored serine to alanine mutations at either position 329 (S329A mutant) or 370 (S370A mutant; Table 3) rendering them unable to carry phosphate groups at positions 329 and 370, respectively. In addition, CRTC3 protein harboring the unmutated wild type (WT) amino acid sequence was produced as a control reagent (Table 3). Briefly, proteins were overexpressed in a Baculovirus expression system and purified using M2 anti-flag magnetic beads (Millipore-Sigma). The wild type protein was additionally subjected to subsequent size exclusion chromatography. All purified proteins were phosphorylated in vitro in the presence of internally produced SIK2 variant (6His-MBP-TEV-SIK2-PKD-UBA; SEQ ID NO: 187) and 1 mM ATP (Promega) in a buffer containing 50 mM Tris pH 7.5, 100 mM NaCl, 10 mM MgCl2 (all from Quality Biologicals), 0.1 mM EDTA (Corning), 1 mM DTT (MP Biomedicals). Phosphorylation reactions were quenched by the addition of excess EDTA.
as §1

[3] = biological target: T2, CRTC3 phosphorylated at serine 329 (pSer329); assay: Immunoblotting of in vitro phosphorylated recombinant CRTC3 wild type vs S329A mutant protein; format: binding; settings: for specific detection of human CRTC3 by phosphorylation state (conclusion of the experiments): serine 329
From the text: as §2, §1

[4] = THP1 lysates not incubated with a SIK inhibitor (lane 3)
[5] = THP1 lysates treated for 1.5 hours with dasatinib at 10 micromolar (lane 4)
[6] = recombinant mAb at 0.25 microgram/ml, FIG. 2D
[7] = undiluted hybridoma supernatant as primary antibody, FIG. 2B
[8] = recombinantly expressed mAb at 0.25 microgram/ml, FIG. 2C
[9] = undiluted hybridoma tissue culture supernatant as primary antibody, FIG. 2A

| Molecule | signal with recombinant CRTC3 WT vs S370A mutant by western blot [2, 6] | signal with recombinant CRTC3 WT vs S370A mutant by western blot [2, 7] | immunoblot signal at the expected molecular size in THP1 lysates [1, 4] | immunoblot signal at the expected molecular size in THP1 lysates [1, 5] | specific recognition of human CRTC3 by phosphorylation state (conclusion of the experiments) [2] | recognition of recombinant CRTC3 WT vs S329A variant by western blot [3, 8] | specific detection of human CRTC3 by phosphorylation state (conclusion of the experiments) [3] | recognition of recombinant CRTC3 WT vs S329A variant by western blot [3, 9] |
| --- | --- | --- | --- | --- | --- | --- | --- | --- |
| mAb #21: anti-phospho-Serine329 CRTC3 monoclonal antibody from rabbit hybridoma; VH SEQ ID NO: 99, VL SEQ ID NO: 100 (antibody, V domains shown) VH: QSVEESGGRLVTPGTPLTLTCTVSGIDLSSNTVSWVRQAPGKGLEWIGVSGYSGRPYYASWAKGRFTISKTSSTVHLKITSPTAEDTATYFCARGSVNVNIWGPGTLVTVSS VL: AQVLTQTASPVSAAVGGTVTINCQSSQSVYSSNRLSWFQQKPGQPPKLLMYYTSTLASGVPSRFKGSGSGTEFTLTISGVQCDDAATYYCLGGYDCDIADCSAFGGGTEVVVK | – | – | strong signal | strongly diminished | – | specifically recognized only recombinant CRTC3 protein harboring the WT sequence | specifically detected human CRTC3 only when phosphorylated at serine 329 | specifically recognized only recombinant CRTC3 protein harboring the WT sequence |
| mAb #82: anti-phospho-Serine329 CRTC3 monoclonal antibody from rabbit hybridoma; VH SEQ ID NO: 133, VL SEQ ID NO: 134 (antibody, V domains shown) VH: QSVEESGGRLVTPGTPLTLTCTVSGIDLSSNTVSWVRQAPGKGLEWIGVIGYSGNGYYASWAKGRFTISKTSTTVDLKMTSPTAEDTATYFCARGSVNCNIWGPGTLVTVSS VL: AQVLTQTASPVSAAVGGTVTINCQSSQSVISNNRLSWLQQKPGQPPKLLIYYASTLASGVPSRFKGSGSGTQFTLTISGVQCDDAATYYCLGGYDCNSADCSTFGGGTEVVVK | – | – | strong signal | strongly diminished | – | specifically recognized only recombinant CRTC3 protein harboring the WT sequence | specifically detected human CRTC3 only when phosphorylated at serine 329 | specifically recognized only recombinant CRTC3 protein harboring the WT sequence |

The next lines start with results.

| signal with recombinant CRTC3 WT vs S370A mutant by western blot [2, 6] | signal with recombinant CRTC3 WT vs S370A mutant by western blot [2, 7] | Molecule | immunoblot signal at the expected molecular size in THP1 lysates [1, 4] | immunoblot signal at the expected molecular size in THP1 lysates [1, 5] | specific recognition of human CRTC3 by phosphorylation state (conclusion of the experiments) [2] | recognition of recombinant CRTC3 WT vs S329A variant by western blot [3, 8] | specific detection of human CRTC3 by phosphorylation state (conclusion of the experiments) [3] | recognition of recombinant CRTC3 WT vs S329A variant by western blot [3, 9] |
| --- | --- | --- | --- | --- | --- | --- | --- | --- |
| specific signal only with WT | specific signal only with WT | mAb #157: anti-phospho-Serine370 CRTC3 monoclonal antibody from rabbit hybridoma; VH SEQ ID NO: 31, VL SEQ ID NO: 32 (antibody, V domains shown) VH: QEQLKESGGGLFKPMDILTVTCTVSGISLSSYGLSWVRQAPGNGLEWIGAIGASGSAYYASWAKSRSTITRNTNLNTVTLKMTSLTAADTATYFCKRNYIWGPGTLVTVSS VL: AQVLTQTASPVSAAVGGTVTINCQASQSVYSDNRLSWYQQKPGQPPKLLIYEASKLASGVPPRFSGSGSGTQFTLAISGVQCDDAATYYCQGSYDCNSADCSAFGGGTEVVVK | strong signal | strongly diminished | specifically recognized human CRTC3 only when phosphorylated at serine 370 | – | – | – |
| specific signal only with WT | specific signal only with WT | mAb #170: anti-phospho-Serine370 CRTC3 monoclonal antibody from rabbit hybridoma; VH SEQ ID NO: 65, VL SEQ ID NO: 66 (antibody, V domains shown) VH: QSMKESEGGLFKPTDTLTLTCTVSGFSLSRYGVIWVRQAPGKGLEFIGYISSTGSTYYASWAKSRSTITRNTNENTVTLKVTSLTAADTATYFCAQSGLGYDGGRNIWGPGTLVTVSS VL: AAVLTQTPSPVSAAVGGTVSISCQSSKSVANSNWLSWYQQKPGQPPKLLIYSASTLASGAPSRFKGSGSGTQFTLTISDVQCDDAATYYCAGGYSDISDIFGFGGGTEVVVK | strong signal | strongly diminished | specifically recognized human CRTC3 only when phosphorylated at serine 370 | – | – | – |
